Laboratory results from patent US20260242478A1 (published 2026).
Where no end group is shown, it is not given here.

B1: Phage-171 (peptide, not shown: large carriers)
peptide: MNWCPSHLWHMCYF
modifications: cysteine pairing not given here; also: displayed as fusion to phage pIII, linker and pIII sequence not given here
notes: Clonal phage of the Peptide-9 library
B2: Phage-167 (peptide, not shown: large carriers)
peptide: MSWCPQDLWHVCFN
modifications: cysteine pairing not given here; also: displayed as fusion to phage pIII, linker and pIII sequence not given here
notes: as for B1
B3: Phage-168 (peptide, not shown: large carriers)
peptide: MDWCPKDLWHECFN
modifications: cysteine pairing not given here; also: displayed as fusion to phage pIII, linker and pIII sequence not given here
notes: as for B1
B4: Phage-170 (peptide, not shown: large carriers)
peptide: MNWCPSDLWHLCFN
modifications: cysteine pairing not given here; also: displayed as fusion to phage pIII, linker and pIII sequence not given here
notes: as for B1
B5: Phage-231 (peptide)
peptide: VPWCLIISGLDCLN
notes: also called VPWCLIISGLDCIN (so in the source)
B6: Phage-211 (peptide)
peptide: MDWCPRNMWTVCFL
notes: tested as crude clonal phage supernatant

Target: T1, anti-CD28 scFv (VH - linker 1 - VL) (biotinylated (site not stated))
Assay: phage ELISA as above, wells pre-incubated with soluble CD28 (competitor);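 also: ELISA of crude clonal phage supernatants added to wells pre-treated with soluble CD28 in blocking buffer, bound phage read out with HRP-conjugated anti-M13 antibody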
T1 sequence (scFv, as listed by the source): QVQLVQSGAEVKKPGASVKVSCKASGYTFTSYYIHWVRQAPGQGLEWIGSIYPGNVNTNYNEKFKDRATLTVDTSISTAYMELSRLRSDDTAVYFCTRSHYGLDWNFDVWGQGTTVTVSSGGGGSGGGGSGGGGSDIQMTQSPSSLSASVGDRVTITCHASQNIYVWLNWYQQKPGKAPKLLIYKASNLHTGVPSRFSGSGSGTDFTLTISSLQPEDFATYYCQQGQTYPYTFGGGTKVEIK

| Binder | CD28 scFv signal in presence of CD28 |
| --- | --- |
| MDWCPRYLWTECFF (peptide, not shown: large carriers, Clonal phage of the Peptide-9 library) [Phage-158] | 0.244 |
| MHWCPRALWHECFN (peptide, not shown: large carriers, Clonal phage of the Peptide-9 library) [Phage-160] | 0.144 |
| MDWCPRSLWSYCFH (peptide, not shown: large carriers, Clonal phage of the Peptide-9 library) [Phage-157] | 0.152 |
| B1 | 0.192 |
| B2 | 0.112 |
| MDWCPKFLWDLCFA (peptide, not shown: large carriers, Clonal phage of the Peptide-9 library) [Phage-164] | 0.139 |
| B3 | 0.1 |
| MAWCPMNLWDQCFF (peptide, not shown: large carriers, Clonal phage of the Peptide-9 library) [Phage-159] | 0.145 |
| MFWCPRYLWHECFN (peptide, not shown: large carriers, Clonal phage of the Peptide-9 library) [Phage-163] | 0.175 |
| MHWCPLHLWNECYH (peptide, not shown: large carriers, Clonal phage of the Peptide-9 library) [Phage-155] | 0.113 |
| B4 | 0.131 |
| MDWCPKHLWHQCFH (peptide, not shown: large carriers, Clonal phage of the Peptide-9 library) [Phage-156] | 0.108 |
| MDWCPFYLWDECFL (peptide, not shown: large carriers, Clonal phage of the Peptide-9 library) [Phage-165] | 0.141 |
| MNWCPTDLWHECFN (peptide, not shown: large carriers, Clonal phage of the Peptide-9 library) [Phage-162] | 0.095 |

Target: T2, anti-CD28 scFv (VH - linker 1 - VL) (biotinylated (captured on neutravidin coated plates))
Assay: clonal phage ELISA on anti-CD28 scFv; wells pre-incubated with soluble CD28 (competitor);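 also: crude phage supernatants added to wells preloaded with blocking buffer plus soluble CD28, bound phage read with HRP-linked anti-M13 antibody, comparison wells received blocking buffer only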
Experimental: (§1) Clonal phage were harvested as crude supernatants and screened via standard enzyme linked immunosorbent assays (ELISAs). […] Prior to the addition of clonal phage, wells were incubated with blocking buffer and CD28 soluble protein or blocking buffer alone. Without washing or aspirating, clonal phage supernatants were then added to the wells and incubated for a short time. Wells were then washed followed by detection of bound phage using a horse radish peroxidase conjugated anti-M13 antibody.

T2 sequence (scFv, as listed by the source): as above

| Binder | CD28 scFv signal in presence of CD28 |
| --- | --- |
| MDWCPKVMWHYCFA [Phage-250] | 0.252 |
| MDWCPRDRWIDCFN [Phage-226] | 0.131 |
| MDWCPRDRWSDCFN [Phage-227] | 0.074 |
| MDWCPRNMWHHCFD [Phage-248] | 0.524 |
| MTWCPTSFWNRCLD [Phage-233] | 0.405 |
| MDWCPRFMWAECFN [Phage-247] | 0.341 |
| ITWCHVISGLECWN [Phage-228] | 0.1 |
| MDWCARFVGYGCLD [Phage-232] | 0.074 |
| MDWCPRNLWHLCFA [Phage-245] | 0.164 |
| MDWCPSYLWHECFF [Phage-237] | 0.447 |
| MDWCPRDRWVDCFF [Phage-223] | 0.14 |
| MDWCPRDRWADCFF [Phage-225] | 0.089 |
| MDWCPRYLWHVCFN [Phage-239] | 0.409 |
| MDWCPRTLWHVCFN [Phage-240] | 0.551 |
| MDWCPRHLWHECYS [Phage-241] | 0.374 |
| MDWCPRHLWYECFN [Phage-243] | 0.167 |
| MDWCPRDLWNLCFF [Phage-236] | 0.436 |
| MDWCPKHLWNKCFN [Phage-246] | 0.092 |
| MDWCPRALWFECFF [Phage-234] | 0.331 |
| MDWCPPYLWSECFA [Phage-238] | 0.234 |
| MDWCPKHLWTECFA [Phage-242] | 0.145 |
| B5 | 0.09 |
| MDWCPSDMWAHCYN [Phage-249] | 0.109 |
| MDWCPRYLWHECFS [Phage-235] | 0.303 |
| MDWCPRYLWHECFD [Phage-244] | 0.177 |
| VPWCQIISGLECLT [Phage-229] | 0.077 |
| APWCQIISGLECLT [Phage-230] | 0.078 |

Target: T3, anti-CD28 scFv (VH - linker 1 - VL) (biotinylated (site not stated))
T3 construct: Captured as biotinylated scFv on neutravidin coated plates in the clonal phage ELISA
Assay: clonal phage ELISA; biotinylated anti-CD28 scFv on neutravidin plate, anti-M13-HRP detection;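 also: crude supernatants of phage clones were tested in wells pretreated with blocking buffer either alone or supplemented with soluble CD28 protein before phage addition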
T3 sequence (scFv, as listed by the source): as above

| Binder | CD28 scFv signal |
| --- | --- |
| B6 | 1.12 |

Target: T2, anti-CD28 scFv (VH - linker 1 - VL)
Assay: clonal phage ELISA; biotinylated anti-CD28 scFv on neutravidin plate, phage detected with anti-M13-HRP;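 also: crude clonal phage supernatants added to wells preincubated with blocking buffer alone or blocking buffer plus soluble CD28 protein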
Experimental: as §1

| Binder | CD28 scFv signal |
| --- | --- |
| MDWCPKDRWNDCYF [Phage-224] | 1.09 |
| MDWCPKVMWHYCFA [Phage-250] | 1.14 |
| MDWCPRDRWIDCFN [Phage-226] | 0.339 |
| MDWCPRDRWSDCFN [Phage-227] | 0.102 |
| MDWCPRNMWHHCFD [Phage-248] | 1.6 |
| MTWCPTSFWNRCLD [Phage-233] | 0.392 |
| MDWCPRFMWAECFN [Phage-247] | 2.6 |
| ITWCHVISGLECWN [Phage-228] | 0.193 |
| MDWCARFVGYGCLD [Phage-232] | 0.065 |
| MDWCPRNLWHLCFA [Phage-245] | 1.4 |
| MDWCPSYLWHECFF [Phage-237] | 2.61 |
| MDWCPRDRWVDCFF [Phage-223] | 1.58 |
| MDWCPRDRWADCFF [Phage-225] | 0.392 |
| MDWCPRYLWHVCFN [Phage-239] | 2.6 |
| MDWCPRTLWHVCFN [Phage-240] | 2.6 |
| MDWCPRHLWHECYS [Phage-241] | 2.58 |
| MDWCPRHLWYECFN [Phage-243] | 2.41 |
| MDWCPKHLWNKCFN [Phage-246] | 1.16 |
| MDWCPRALWFECFF [Phage-234] | 2.67 |
| MDWCPPYLWSECFA [Phage-238] | 2.6 |
| MDWCPKHLWTECFA [Phage-242] | 2.49 |
| B5 | 0.107 |
| MDWCPSDMWAHCYN [Phage-249] | 1.21 |
| MDWCPRYLWHECFS [Phage-235] | 2.65 |
| MDWCPRYLWHECFD [Phage-244] | 2.07 |
| VPWCQIISGLECLT [Phage-229] | 0.174 |
| APWCQIISGLECLT [Phage-230] | 0.169 |

Target: T1, anti-CD28 scFv (VH - linker 1 - VL)
Assay: phage ELISA; biotinylated anti-CD28 scFv on neutravidin plate, clonal phage supernatant, anti-M13-HRP detection;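 also: before phage addition, wells were pretreated with soluble CD28 protein in blocking buffer, or with blocking buffer only as the comparison, then phage were added without washing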
Experimental: as §1

| Binder | CD28 scFv signal |
| --- | --- |
| MDWCPRYLWTECFF (peptide, not shown: large carriers, Clonal phage of the Peptide-9 library) [Phage-158] | 1.26 |
| MHWCPRALWHECFN (peptide, not shown: large carriers, Clonal phage of the Peptide-9 library) [Phage-160] | 1.18 |
| MDWCPRSLWSYCFH (peptide, not shown: large carriers, Clonal phage of the Peptide-9 library) [Phage-157] | 1.33 |
| B1 | 0.702 |
| B2 | 0.86 |
| MDWCPKFLWDLCFA (peptide, not shown: large carriers, Clonal phage of the Peptide-9 library) [Phage-164] | 1.07 |
| B3 | 0.762 |
| MAWCPMNLWDQCFF (peptide, not shown: large carriers, Clonal phage of the Peptide-9 library) [Phage-159] | 1.2 |
| MFWCPRYLWHECFN (peptide, not shown: large carriers, Clonal phage of the Peptide-9 library) [Phage-163] | 1.08 |
| MHWCPLHLWNECYH (peptide, not shown: large carriers, Clonal phage of the Peptide-9 library) [Phage-155] | 1.37 |
| B4 | 0.739 |
| MDWCPKHLWHQCFH (peptide, not shown: large carriers, Clonal phage of the Peptide-9 library) [Phage-156] | 1.35 |
| MDWCPFYLWDECFL (peptide, not shown: large carriers, Clonal phage of the Peptide-9 library) [Phage-165] | 1.02 |
| MNWCPTDLWHECFN (peptide, not shown: large carriers, Clonal phage of the Peptide-9 library) [Phage-162] | 1.09 |
